The record followed here is paper PMC7769003.

The target in this experiment is Recombinant VEEV p62-E1 protein (TrD strain) (Venezuelan equine encephalitis virus (TrD strain)). Briefly: SPR. For orientation: SPR reads the build-up and loss of mass on a sensor chip optically.

As to “HRV-cleaved monovalent Ldlrad3-D1 (from UniProt A2AR95 18-70) (domain or fragment)”, the Kd stood at 209 nM.

As a reminder, the Kd is the free concentration of one partner at which half of the binding sites on the other are occupied at equilibrium, for simple one-to-one binding.
